The data set deals with the molecule itself. Nature of the data set: cross-linking; 1 µM clathrin hub fragment (wild type or TS-mutant) in PBS with 10 mg/l BS3 for 5 min at temperatures from 26 to 47°C; SDS-PAGE with silver stain or anti-His-tag Western blot.

B1: human clathrin heavy chain wild type hub fragment (domain or fragment, UniProt Q00610 1074-1675, looked up)
chain: KFDVNTSAVQVLIEHIGNLDRAYEFAERCNEPAVWSQLAKAQLQKGMVKEAIDSYIKADDPSSYMEVVQAANTSGNWEELVKYLQMARKKARESYVETELIFALAKTNRLAELEEFINGPNNAHIQQVGDRCYDEKMYDAAKLLYNNVSNFGRLASTLVHLGEYQAAVDGARKANSTRTWKEVCFACVDGKEFRLAQMCGLHIVVHADELEELINYYQDRGYFEELITMLEAALGLERAHMGMFTELAILYSKFKPQKMREHLELFWSRVNIPKVLRAAEQAHLWAELVFLYDKYEEYDNAIITMMNHPTDAWKEGQFKDIITKVANVELYYRAIQFYLEFKPLLLNDLLMVLSPRLDHTRAVNYFSKVKQLPLVKPYLRSVQNHNNKSVNESLNNLFITEEDYQALRTSIDAYDNFDNISLAQRLEKHELIEFRRIAAYLFKGNNRWKQSVELCKKDSLYKDAMQYASESKDTELAEELLQWFLQEEKRECFGACLFTCYDLLRPDVVLETAWRHNIMDFAMPYFIQVMKEYLTKVDKLDASESLRKEEEQATETQPIVYGQPQLMLTAGPSVAVPPQAPFGYGYTAPPYGQPQPGFGYSM
notes: Clathrin heavy chain, human, C-terminal 'hub' fragment involved in trimerization; The PCR primers encode KFDVNTS... at the start (after a BamHI site) and ...GFGYSM followed by the stop codon at the end (before a HindIII site); Cloned in pET28a between BamHI and HindIII with its own stop codon, so the His tag is probably N-terminal (surmised); also called clathrin-hub fragment; hub fragment (wild …)
B1: the binding result was “binds”.

B2: human clathrin heavy chain TS-hub fragment (E1584K) (domain or fragment, UniProt Q00610 1074-1675, looked up)
chain: KFDVNTSAVQVLIEHIGNLDRAYEFAERCNEPAVWSQLAKAQLQKGMVKEAIDSYIKADDPSSYMEVVQAANTSGNWEELVKYLQMARKKARESYVETELIFALAKTNRLAELEEFINGPNNAHIQQVGDRCYDEKMYDAAKLLYNNVSNFGRLASTLVHLGEYQAAVDGARKANSTRTWKEVCFACVDGKEFRLAQMCGLHIVVHADELEELINYYQDRGYFEELITMLEAALGLERAHMGMFTELAILYSKFKPQKMREHLELFWSRVNIPKVLRAAEQAHLWAELVFLYDKYEEYDNAIITMMNHPTDAWKEGQFKDIITKVANVELYYRAIQFYLEFKPLLLNDLLMVLSPRLDHTRAVNYFSKVKQLPLVKPYLRSVQNHNNKSVNESLNNLFITEEDYQALRTSIDAYDNFDNISLAQRLEKHELIEFRRIAAYLFKGNNRWKQSVELCKKDSLYKDAMQYASESKDTELAEELLQWFLQEEKRECFGACLFTCYDLLRPDVVLKTAWRHNIMDFAMPYFIQVMKEYLTKVDKLDASESLRKEEEQATETQPIVYGQPQLMLTAGPSVAVPPQAPFGYGYTAPPYGQPQPGFGYSM
notes: Clathrin heavy chain, human, C-terminal 'hub' fragment amplified from the TS-clathrin (E1584K) cDNA; The PCR primers encode KFDVNTS... at the start and ...GFGYSM followed by the stop codon at the end; Same construct as m1 but with the temperature-sensitive point mutation E1584K. pET28a, so the His tag is probably N-terminal (surmised); also called clathrin hub fragment TS-mutant; pET28a human …
In the case of B2, the binding result is listed as “binds”.
